Reference: the Human Domainome abundance scans (Beltran et al. 2025)
± gives the uncertainty stated by the source.

B1: Kinesin-like protein KIF16B, residues 1213 to 1273; numbered along this chain, Q96L93 (parent)
chain: ETWTVFRRYSRFREMHKTLKLKYAELAALEFPPKKLFGNKDERVIAERRSHLEKYLRDFFS

Variants of: B1
Experiment: abundance fitness (aPCA) (normalised: wild type 0, dead -1); higher = more abundant; growth selection in yeast, the domain comes from the species named
Settings: Homo sapiens

Variant | abundance fitness
ETWTVFRRYSRFREMHKTLKLKYAELAGLEFPPKKLFGNKDERVIAERRSHLEKYLRDFFS | -0.101 ± 0.072
ETWTVFRRYSRFREMHKTLKLKYAELAWLEFPPKKLFGNKDERVIAERRSHLEKYLRDFFS | -0.177 ± 0.11
ETWTVFRRYSRFREMHKTLKLKYAELARLEFPPKKLFGNKDERVIAERRSHLEKYLRDFFS | -0.036 ± 0.053
ETWTVFRRYSRFREMHKTLKLKYAELASLEFPPKKLFGNKDERVIAERRSHLEKYLRDFFS | -0.129 ± 0.1
ETWTVFRRYSRFREMHKTLKLKYAELAKLEFPPKKLFGNKDERVIAERRSHLEKYLRDFFS | -0.094 ± 0.17
ETWTVFRRYSRFREMHKTLKLKYAELAMLEFPPKKLFGNKDERVIAERRSHLEKYLRDFFS | -0.433 ± 0.16
ETWTVFRRYSRFREMHKTLKLKYAELAVLEFPPKKLFGNKDERVIAERRSHLEKYLRDFFS | -0.912 ± 0.18
ETWTVFRRYSRFREMHKTLKLKYAELAPLEFPPKKLFGNKDERVIAERRSHLEKYLRDFFS | -0.424 ± 0.11
ETWTVFRRYSRFREMHKTLKLKYAELAILEFPPKKLFGNKDERVIAERRSHLEKYLRDFFS | -0.311 ± 0.49
ETWTVFRRYSRFREMHKTLKLKYAELAYLEFPPKKLFGNKDERVIAERRSHLEKYLRDFFS | -1.03 ± 0.39
ETWTVFRRYSRFREMHKTLKLKYAELATLEFPPKKLFGNKDERVIAERRSHLEKYLRDFFS | 0.009 ± 0.08
ETWTVFRRYSRFREMHKTLKLKYAELAALEYPPKKLFGNKDERVIAERRSHLEKYLRDFFS | -0.295 ± 0.35
ETWTVFRRYSRFREMHKTLKLKYAELAALEWPPKKLFGNKDERVIAERRSHLEKYLRDFFS | 0.194 ± 0.062
ETWTVFRRYSRFREMHKTLKLKYAELAALEQPPKKLFGNKDERVIAERRSHLEKYLRDFFS | -0.716 ± 0.24
ETWTVFRRYSRFREMHKTLKLKYAELAALEGPPKKLFGNKDERVIAERRSHLEKYLRDFFS | -0.862 ± 0.12
ETWTVFRRYSRFREMHKTLKLKYAELAALENPPKKLFGNKDERVIAERRSHLEKYLRDFFS | -0.703 ± 0.2
ETWTVFRRYSRFREMHKTLKLKYAELAALERPPKKLFGNKDERVIAERRSHLEKYLRDFFS | -0.692 ± 0.09
ETWTVFRRYSRFREMHKTLKLKYAELAALEEPPKKLFGNKDERVIAERRSHLEKYLRDFFS | -0.46 ± 0.11
ETWTVFRRYSRFREMHKTLKLKYAELAALEKPPKKLFGNKDERVIAERRSHLEKYLRDFFS | -0.752 ± 0.35
ETWTVFRRYSRFREMHKTLKLKYAELAALECPPKKLFGNKDERVIAERRSHLEKYLRDFFS | -0.644 ± 0.15
ETWTVFRRYSRFREMHKTLKLKYAELAALETPPKKLFGNKDERVIAERRSHLEKYLRDFFS | -0.949 ± 0.19
ETWTVFRRYSRFREMHKTLKLKYAELAALEDPPKKLFGNKDERVIAERRSHLEKYLRDFFS | -0.946 ± 0.38

Variant | abundance fitness
ETWTVFRRYSRFREMHKTLKLKYAELAALEVPPKKLFGNKDERVIAERRSHLEKYLRDFFS | -0.545 ± 0.079
ETWTVFRRYSRFREMHKTLKLKYAELAALESPPKKLFGNKDERVIAERRSHLEKYLRDFFS | -0.699 ± 0.15
ETWTVFRRYSRFREMHKTLKLKYAELAALEAPPKKLFGNKDERVIAERRSHLEKYLRDFFS | -0.573 ± 0.18
ETWTVFRRYSRFREMHKTLKLKYAELAALELPPKKLFGNKDERVIAERRSHLEKYLRDFFS | -0.397 ± 0.12
ETWTVFRRYSRFREMHKTLKLKYAELAALEIPPKKLFGNKDERVIAERRSHLEKYLRDFFS | -0.64 ± 0.32
ETWTVFRRYSRFREMHKTLKLKYAELAAWEFPPKKLFGNKDERVIAERRSHLEKYLRDFFS | 0.223 ± 0.052
ETWTVFRRYSRFREMHKTLKLKYAELAACEFPPKKLFGNKDERVIAERRSHLEKYLRDFFS | -0.228 ± 0.14
ETWTVFRRYSRFREMHKTLKLKYAELAASEFPPKKLFGNKDERVIAERRSHLEKYLRDFFS | -0.513 ± 0.11
ETWTVFRRYSRFREMHKTLKLKYAELAAKEFPPKKLFGNKDERVIAERRSHLEKYLRDFFS | -0.226 ± 0.08
ETWTVFRRYSRFREMHKTLKLKYAELAAHEFPPKKLFGNKDERVIAERRSHLEKYLRDFFS | -0.38 ± 0.41
ETWTVFRRYSRFREMHKTLKLKYAELAAEEFPPKKLFGNKDERVIAERRSHLEKYLRDFFS | -0.883 ± 0.12
ETWTVFRRYSRFREMHKTLKLKYAELAAVEFPPKKLFGNKDERVIAERRSHLEKYLRDFFS | -0.033 ± 0.063
ETWTVFRRYSRFREMHKTLKLKYAELAAYEFPPKKLFGNKDERVIAERRSHLEKYLRDFFS | -0.31 ± 0.32
ETWTVFRRYSRFREMHKTLKLKYAELAATEFPPKKLFGNKDERVIAERRSHLEKYLRDFFS | -0.132 ± 0.073
ETWTVFRRYSRFREMHKTLKLKYAELAAAEFPPKKLFGNKDERVIAERRSHLEKYLRDFFS | 0.172 ± 0.07
ETWTVFRRYSRFREMHKTLKLKYAELAAFEFPPKKLFGNKDERVIAERRSHLEKYLRDFFS | -0.188 ± 0.25
ETWTVFRRYSRFREMHKTLKLKYAELAAMEFPPKKLFGNKDERVIAERRSHLEKYLRDFFS | 0.337 ± 0.063
ETWTVFRRYSRFREMHKTLKLKYAELAAIEFPPKKLFGNKDERVIAERRSHLEKYLRDFFS | 0.427 ± 0.22
ETWTVFRRYSRFREMHKTLKLKYAELAAREFPPKKLFGNKDERVIAERRSHLEKYLRDFFS | -0.192 ± 0.053
ETWTVFRRYSRFREMHKTLKLKYAELAALEFSPKKLFGNKDERVIAERRSHLEKYLRDFFS | 0.159 ± 0.085
ETWTVFRRYSRFREMHKTLKLKYAELAALEFNPKKLFGNKDERVIAERRSHLEKYLRDFFS | 0.209 ± 0.088
ETWTVFRRYSRFREMHKTLKLKYAELAALEFHPKKLFGNKDERVIAERRSHLEKYLRDFFS | 0.166 ± 0.47

Variant | abundance fitness
ETWTVFRRYSRFREMHKTLKLKYAELAALEFEPKKLFGNKDERVIAERRSHLEKYLRDFFS | -0.374 ± 0.086
ETWTVFRRYSRFREMHKTLKLKYAELAALEFCPKKLFGNKDERVIAERRSHLEKYLRDFFS | 0.171 ± 0.075
ETWTVFRRYSRFREMHKTLKLKYAELAALEFTPKKLFGNKDERVIAERRSHLEKYLRDFFS | 0.069 ± 0.056
ETWTVFRRYSRFREMHKTLKLKYAELAALEFAPKKLFGNKDERVIAERRSHLEKYLRDFFS | 0.075 ± 0.055
ETWTVFRRYSRFREMHKTLKLKYAELAALEFWPKKLFGNKDERVIAERRSHLEKYLRDFFS | 0.353 ± 0.065
ETWTVFRRYSRFREMHKTLKLKYAELAALEFFPKKLFGNKDERVIAERRSHLEKYLRDFFS | 0.329 ± 0.093
ETWTVFRRYSRFREMHKTLKLKYAELAALEFDPKKLFGNKDERVIAERRSHLEKYLRDFFS | -0.082 ± 0.11
ETWTVFRRYSRFREMHKTLKLKYAELAALEFLPKKLFGNKDERVIAERRSHLEKYLRDFFS | 0.296 ± 0.056
ETWTVFRRYSRFREMHKTLKLKYAELAALEFRPKKLFGNKDERVIAERRSHLEKYLRDFFS | 0.139 ± 0.049
ETWTVFRRYSRFREMHKTLKLKYAELAALEFMPKKLFGNKDERVIAERRSHLEKYLRDFFS | 0.191 ± 0.046
ETWTVFRRYSRFREMHKTLKLKYAELAALEFQPKKLFGNKDERVIAERRSHLEKYLRDFFS | -0.243 ± 0.081
ETWTVFRRYSRFREMHKTLKLKYAELAALEFYPKKLFGNKDERVIAERRSHLEKYLRDFFS | -0.691 ± 0.38
ETWTVFRRYSRFREMHKTLKLKYAELAALEFKPKKLFGNKDERVIAERRSHLEKYLRDFFS | 0.275 ± 0.065
ETWTVFRRYSRFREMHKTLKLKYAELAALMFPPKKLFGNKDERVIAERRSHLEKYLRDFFS | 0.347 ± 0.072
ETWTVFRRYSRFREMHKTLKLKYAELAALLFPPKKLFGNKDERVIAERRSHLEKYLRDFFS | 0.476 ± 0.039
ETWTVFRRYSRFREMHKTLKLKYAELAALHFPPKKLFGNKDERVIAERRSHLEKYLRDFFS | -0.212 ± 0.11
ETWTVFRRYSRFREMHKTLKLKYAELAALYFPPKKLFGNKDERVIAERRSHLEKYLRDFFS | 0.322 ± 0.047
ETWTVFRRYSRFREMHKTLKLKYAELAALIFPPKKLFGNKDERVIAERRSHLEKYLRDFFS | 0.539 ± 0.079
ETWTVFRRYSRFREMHKTLKLKYAELAALRFPPKKLFGNKDERVIAERRSHLEKYLRDFFS | 0.018 ± 0.058
ETWTVFRRYSRFREMHKTLKLKYAELAALTFPPKKLFGNKDERVIAERRSHLEKYLRDFFS | 0.108 ± 0.093
ETWTVFRRYSRFREMHKTLKLKYAELAALDFPPKKLFGNKDERVIAERRSHLEKYLRDFFS | 0.08 ± 0.068
ETWTVFRRYSRFREMHKTLKLKYAELAALNFPPKKLFGNKDERVIAERRSHLEKYLRDFFS | 0.071 ± 0.096

Variant | abundance fitness
ETWTVFRRYSRFREMHKTLKLKYAELAALKFPPKKLFGNKDERVIAERRSHLEKYLRDFFS | -0.033 ± 0.084
ETWTVFRRYSRFREMHKTLKLKYAELAALGFPPKKLFGNKDERVIAERRSHLEKYLRDFFS | 0.153 ± 0.046
ETWTVFRRYSRFREMHKTLKLKYAELAALQFPPKKLFGNKDERVIAERRSHLEKYLRDFFS | 0.036 ± 0.093
ETWTVFRRYSRFREMHKTLKLKYAELAALVFPPKKLFGNKDERVIAERRSHLEKYLRDFFS | 0.372 ± 0.042
ETWTVFRRYSRFREMHKTLKLKYAELAALSFPPKKLFGNKDERVIAERRSHLEKYLRDFFS | 0.151 ± 0.065
ETWTVFRRYSRFREMHKTLKLKYAELAALWFPPKKLFGNKDERVIAERRSHLEKYLRDFFS | 0.313 ± 0.071
ETWTVFRRYSRFREMHKTLKLKYAELAALAFPPKKLFGNKDERVIAERRSHLEKYLRDFFS | 0.169 ± 0.052
ETWTVFRRYSRFREMHKTLKLKYAELAALEFPVKKLFGNKDERVIAERRSHLEKYLRDFFS | 0.17 ± 0.039
ETWTVFRRYSRFREMHKTLKLKYAELAALEFPTKKLFGNKDERVIAERRSHLEKYLRDFFS | -0.02 ± 0.16
ETWTVFRRYSRFREMHKTLKLKYAELAALEFPSKKLFGNKDERVIAERRSHLEKYLRDFFS | 0.022 ± 0.067
ETWTVFRRYSRFREMHKTLKLKYAELAALEFPLKKLFGNKDERVIAERRSHLEKYLRDFFS | 0.366 ± 0.049
ETWTVFRRYSRFREMHKTLKLKYAELAALEFPKKKLFGNKDERVIAERRSHLEKYLRDFFS | 0.035 ± 0.13
ETWTVFRRYSRFREMHKTLKLKYAELAALEFPDKKLFGNKDERVIAERRSHLEKYLRDFFS | -1.07 ± 0.42
ETWTVFRRYSRFREMHKTLKLKYAELAALEFPFKKLFGNKDERVIAERRSHLEKYLRDFFS | 0.495 ± 0.096
ETWTVFRRYSRFREMHKTLKLKYAELAALEFPGKKLFGNKDERVIAERRSHLEKYLRDFFS | 0.279 ± 0.038
ETWTVFRRYSRFREMHKTLKLKYAELAALEFPQKKLFGNKDERVIAERRSHLEKYLRDFFS | -0.429 ± 0.26
ETWTVFRRYSRFREMHKTLKLKYAELAALEFPIKKLFGNKDERVIAERRSHLEKYLRDFFS | 0.24 ± 0.39
ETWTVFRRYSRFREMHKTLKLKYAELAALEFPWKKLFGNKDERVIAERRSHLEKYLRDFFS | 0.322 ± 0.084
ETWTVFRRYSRFREMHKTLKLKYAELAALEFPAKKLFGNKDERVIAERRSHLEKYLRDFFS | 0.047 ± 0.059
ETWTVFRRYSRFREMHKTLKLKYAELAALEFPHKKLFGNKDERVIAERRSHLEKYLRDFFS | 0.107 ± 0.15
ETWTVFRRYSRFREMHKTLKLKYAELAALEFPEKKLFGNKDERVIAERRSHLEKYLRDFFS | -0.857 ± 0.24
